# Patent publication US20220218659
# B1: Active recombinant Lyn kinase (protein)
# chain: MGCIKSKGKDSLSDDGVDLKTQPVRNTERTIYVRDPTSNKQQRPVPESQLLPGQRFQTKDPEEQGDIVVALYPYDGIHPDDLSFKKGEKMKVLEEHGEWWKAKSLLTKKEGFIPSNYVAKLNTLETEEWFFKDITRKDAERQLLAPGNSAGAFLIRESETLKGSFSLSVRDFDPVHGDVIKHYKIRSLDNGGYYISPRITFPCISDMIKHYQKQADGLCRRLEKACISPKPQKPWDKDAWEIPRESIKLVKRLGAGQFGEVWMGYYNNSTKVAVKTLKPGTMSVQAFLEEANLMKTLQHDKLVRLYAVVTREEPIYIITEYMAKGSLLDFLKSDEGGKVLLPKLIDFSAQIAEGMAYIERKNYIHRDLRAANVLVSESLMCKIADFGLARVIEDNEYTAREGAKFPIKWTAPEAINFGCFTIKSDVWSFGILLYEIVTYGKIPYPGRTNADVMTALSQGYRMPRVENCPDELYDIMKMCWKEKAEERPTFDYLQSVLDDFYTATEGQYQQQP
# Target: T1, Human ACLY, His-tagged, bacterially expressed and purified recombinant full length protein, P53396
# T1 chain: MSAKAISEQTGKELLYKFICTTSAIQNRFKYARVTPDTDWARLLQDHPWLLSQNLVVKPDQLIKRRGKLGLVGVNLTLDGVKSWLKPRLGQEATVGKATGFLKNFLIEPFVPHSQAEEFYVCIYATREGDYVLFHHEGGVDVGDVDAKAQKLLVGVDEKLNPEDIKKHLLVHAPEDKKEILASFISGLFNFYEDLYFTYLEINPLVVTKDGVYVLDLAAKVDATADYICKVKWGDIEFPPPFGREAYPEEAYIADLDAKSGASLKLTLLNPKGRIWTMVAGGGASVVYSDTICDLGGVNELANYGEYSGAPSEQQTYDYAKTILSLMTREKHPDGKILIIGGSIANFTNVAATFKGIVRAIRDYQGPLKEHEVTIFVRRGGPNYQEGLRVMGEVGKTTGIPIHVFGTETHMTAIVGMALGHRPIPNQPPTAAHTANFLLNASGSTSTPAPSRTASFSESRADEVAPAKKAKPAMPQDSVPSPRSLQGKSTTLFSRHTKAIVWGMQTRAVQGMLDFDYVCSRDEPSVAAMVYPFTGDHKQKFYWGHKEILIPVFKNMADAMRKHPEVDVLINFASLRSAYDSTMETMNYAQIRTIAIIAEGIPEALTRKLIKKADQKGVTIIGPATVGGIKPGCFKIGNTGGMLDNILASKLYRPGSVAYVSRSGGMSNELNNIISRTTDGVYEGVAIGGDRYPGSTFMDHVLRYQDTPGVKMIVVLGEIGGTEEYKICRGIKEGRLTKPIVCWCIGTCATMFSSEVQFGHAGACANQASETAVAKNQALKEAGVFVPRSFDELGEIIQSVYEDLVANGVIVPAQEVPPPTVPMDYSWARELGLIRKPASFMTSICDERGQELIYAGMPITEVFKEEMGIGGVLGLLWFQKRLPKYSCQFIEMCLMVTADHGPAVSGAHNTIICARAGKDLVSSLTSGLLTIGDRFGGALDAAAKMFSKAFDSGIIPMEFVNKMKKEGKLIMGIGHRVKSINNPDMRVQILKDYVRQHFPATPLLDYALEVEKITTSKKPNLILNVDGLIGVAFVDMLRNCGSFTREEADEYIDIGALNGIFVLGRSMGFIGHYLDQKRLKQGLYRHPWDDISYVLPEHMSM
protein,measurement,value
B1,ACLY tyrosine residues phosphorylated (phosphoproteomics),"The three ACLY tyrosine residues, Y682, Y252, Y227, were common for Lyn and Src"
same,"number of ACLY tyrosine residues phosphorylated (in vitro kinase assay, phosphoproteomics) (tyrosine residues)",6
